Substitutions are numbered along the chain they refer to. Values belong to the binder of their own block, whether it stands above or below them.
Molecular target: T1, recombinant hIL-18Rα extracellular domain (human, UniProt Q13478 22-329, biotin label (selection) or fluorescent probe (single-clone FACS), sites not given)
T1 construct: extracellular domain; also called hIL-18Rα ECD; hIL-18Rα-ECD
T1 sequence (looked up): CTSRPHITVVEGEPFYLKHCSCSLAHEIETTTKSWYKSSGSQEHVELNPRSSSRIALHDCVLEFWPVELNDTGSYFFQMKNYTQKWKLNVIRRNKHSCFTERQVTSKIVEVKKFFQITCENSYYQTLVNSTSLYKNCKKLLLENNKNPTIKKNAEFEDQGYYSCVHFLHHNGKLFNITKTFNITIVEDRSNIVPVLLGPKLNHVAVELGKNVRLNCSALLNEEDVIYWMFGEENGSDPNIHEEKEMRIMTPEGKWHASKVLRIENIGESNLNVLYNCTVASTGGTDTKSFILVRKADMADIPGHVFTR
Test: single-clone FACS, yeast display, 10 nM labelled hIL-18Rα ECD
Procedure: Following the screens described in Example 2, single clone FACS analysis was performed to verify the binding of selected yeast cell surface-expressed IL-18 variant polypeptides from Round 4 and Round 5 to 10 nM hIL-18Rα-ECD. Briefly, each yeast clone at the same density was incubated with 10 nM IL-18Rα-ECD labeled by fluorescent probe, respectively, followed by washing step. Then the ratio of fluorescent positive IL-18Rα ECD binding yeasts in the population of each clone were analyzed.

% of fluorescence positive cells: 87.2%
B1: SEQ ID NO 42 (ligand)
chain: YFEKLRSKLSVIRNLNDQVLFIDQGNRPLFEDMTDSDCRDNAPRTIFIISMYKWSPDRGMAVTISVKCEKISTLSCENKIISFKEMNPPDVIKDTKSDIIFFQVSVPGHDNKMQFESSSYEGYFLACEKERDLFKLILKKEDELGDRSIMFTVQNED

% of fluorescence positive cells: 3.45%
B2: SEQ ID NO 95 (ligand)
chain: B1 chain with E3W, R6S, W54L, P56T, D57W, V91Y, V104R

% of fluorescence positive cells: 86.1%
B3: SEQ ID NO 45 (ligand)
chain: B1 chain with E3P, W54H, P56Y, D57G, V91A, V104T

% of fluorescence positive cells: 28.4%
B4: SEQ ID NO 77 (ligand)
chain: B1 chain with E3P, W54H, P56Y, D57T, V91I, V104Y

% of fluorescence positive cells: 4.48%
B5: SEQ ID NO 93 (ligand)
chain: B1 chain with E3G, R6P, W54L, P56N, D57R, V91G, V104R

% of fluorescence positive cells: 5.15%
B6: SEQ ID NO 90 (ligand)
chain: B1 chain with E3P, W54S, P56L, D57K, V91T, V104S

% of fluorescence positive cells: 51.3%
B7: SEQ ID NO 70 (ligand)
chain: B1 chain with E3P, P56G, D57G, V91A, V104L

% of fluorescence positive cells: 84.7%
B8: SEQ ID NO 47 (ligand)
chain: B1 chain with E3P, W54L, P56T, D57V, V91G, V104H

% of fluorescence positive cells: 2.79%
B9: SEQ ID NO 96 (ligand)
chain: B1 chain with E3P, R6H, W54R, P56T, D57L, V91G, V104R

% of fluorescence positive cells: 2.36%
B10: SEQ ID NO 98 (ligand)
chain: B1 chain with E3P, R6T, W54Y, P56T, D57R, V91N, V104R

% of fluorescence positive cells: 9.28%
B11: SEQ ID NO 86 (ligand)
chain: B1 chain with E3P, R6N, W54L, P56T, D57V, V91P, V104H

% of fluorescence positive cells: 45.1%
B12: SEQ ID NO 71 (ligand)
chain: B1 chain with E3P, R6Y, W54H, P56T, D57N, V91G, V104R

% of fluorescence positive cells: 27.8%
B13: SEQ ID NO 78 (ligand)
chain: B1 chain with E3K, R6P, R13H, W54L, P56S, D57E, V91N, V104R

% of fluorescence positive cells: 76.1%
B14: SEQ ID NO 61 (ligand)
chain: B1 chain with E3P, R6K, W54F, P56T, D57E, V91P, V104R

% of fluorescence positive cells: 79%
B15: SEQ ID NO 57 (ligand)
chain: B1 chain with E3P, R6K, W54H, P56R, D57A, V91S, V104T

% of fluorescence positive cells: 5.45%
B16: SEQ ID NO 88 (ligand)
chain: B1 chain with E3P, R6S, W54H, P56S, D57R, V104A

% of fluorescence positive cells: 14.5%
B17: SEQ ID NO 82 (ligand)
chain: B1 chain with E3P, W54L, P56T, D57I, V91Y, V104R

% of fluorescence positive cells: 5.27%
B18: SEQ ID NO 89 (ligand)
chain: B1 chain with E3P, R6A, W54H, P56S, D57K

% of fluorescence positive cells: 76.5%
B19: SEQ ID NO 60 (ligand)
chain: B1 chain with E3P, R6K, W54H, P56S, D57T, V104C

% of fluorescence positive cells: 10.8%
B20: SEQ ID NO 85 (ligand)
chain: B1 chain with E3P, R6K, P56G, D57G, V91S, V104F

% of fluorescence positive cells: 29.7%
B21: SEQ ID NO 76 (ligand)
chain: B1 chain with E3P, R6K, P56W, D57A, V91L, V104Y

% of fluorescence positive cells: 13.5%
B22: SEQ ID NO 83 (ligand)
chain: B1 chain with E3W, R6W, W54P, P56N, D57F, V104G

% of fluorescence positive cells: 83%
B23: SEQ ID NO 52 (ligand)
chain: B1 chain with E3W, R6K, W54P, P56S, D57H, V104L

% of fluorescence positive cells: 6.12%
B24: SEQ ID NO 87 (ligand)
chain: B1 chain with E3P, R6G, W54G, P56H, D57F, V91G, V104S

% of fluorescence positive cells: 83.1%
B25: SEQ ID NO 51 (ligand)
chain: B1 chain with E3P, P56A, D57V, V91S, V104S

% of fluorescence positive cells: 4.48%
B26: SEQ ID NO 92 (ligand)
chain: B1 chain with E3W, R6S, W54Q, P56L, D57R, V91R, V104A

% of fluorescence positive cells: 60.9%
B27: SEQ ID NO 68 (ligand)
chain: B1 chain with E3P, R6K, D57W, V91N, V104T

% of fluorescence positive cells: 70.8%
B28: SEQ ID NO 64 (ligand)
chain: B1 chain with E3P, R6N, W54V, S55P, P56T, D57A, V91A, V104R

% of fluorescence positive cells: 2.66%
B29: SEQ ID NO 97 (ligand)
chain: B1 chain with E3P, R6K, W54T, P56F, D57N, V104R

% of fluorescence positive cells: 21.5%
B30: SEQ ID NO 79 (ligand)
chain: B1 chain with E3P, R6G, P56Q, D57P, V104Y

% of fluorescence positive cells: 1.91%
B31: SEQ ID NO 101 (ligand)
chain: B1 chain with E3P, R6K, W54L, P56R, D57T, V91F, V104S

% of fluorescence positive cells: 84.9%
B32: SEQ ID NO 46 (ligand)
chain: B1 chain with E3P, R6G, W54H, P56D, D57P, V104M

% of fluorescence positive cells: 60.9%
B33: SEQ ID NO 69 (ligand)
chain: B1 chain with E3P, R6V, P56A, D57I, V104T

% of fluorescence positive cells: 66.4%
B34: SEQ ID NO 67 (ligand)
chain: B1 chain with E3T, W54L, P56H, D57L, M60I, V91A, V104S

% of fluorescence positive cells: 82.4%
B35: SEQ ID NO 53 (ligand)
chain: B1 chain with E3P, W54L, P56G, D57W, V104R

% of fluorescence positive cells: 1.64%
B36: SEQ ID NO 102 (ligand)
chain: B1 chain with E3P, W54F, P56N, D57F, V91A, V104S

% of fluorescence positive cells: 72.6%
B37: SEQ ID NO 63 (ligand)
chain: B1 chain with E3P, R6Q, W54L, P56T, D57P, V91A, V104R

% of fluorescence positive cells: 18.6%
B38: SEQ ID NO 80 (ligand)
chain: B1 chain with E3P, P56Y, D57P, V91G, V104F

% of fluorescence positive cells: 30%
B39: SEQ ID NO 75 (ligand)
chain: B1 chain with E3P, R6G, W54H, P56S, D57R, V104N

% of fluorescence positive cells: 11.5%
B40: SEQ ID NO 84 (ligand)
chain: B1 chain with E3P, R6K, W54M, P56S, D57A, V91G, V104S

% of fluorescence positive cells: 83.8%
B41: SEQ ID NO 48 (ligand)
chain: B1 chain with E3F, R6K, W54P, D57P, V91T, V104Y

% of fluorescence positive cells: 2.16%
B42: SEQ ID NO 100 (ligand)
chain: B1 chain with E3S, R6P, W54Y, P56T, D57W, V91F, V104S

Reference: patent publication US20260092093A1 (TJ BIOPHARMA SHANGHAI, published 2026)
